Earlier results on 1 substance are cited in publication PMC2646799.

This data set addresses histone H3 acetyl-K9 peptide (Homo sapiens) (UniProt P68431).

Consider Polybromo-1 BrD3 (from UniProt Q86U86), for which the Kd (commonly the constant that tells how readily two partners part at equilibrium) is 1 µM.
